What all share (test): pull-down binding Z-score (relative to library population); higher = stronger binding
Settings in all cases: RNA library: Library-2

For data set [1], the system named is TO-3-N3 (biotin conjugate). The essentials:
(§1)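 Streptavidin beads bearing 100 pmol of a biotin-conjugated small molecule were incubated for 60 min at 25 °C with 1 μg of heat-folded, Cy5- or Cy3-end-labelled RNA library in phosphate/NaCl/KCl buffer. Hot SDS eluted the RNA that stayed bound after three washes, and this RNA was hybridised for 20 h at 55.5 °C to a DNA barcode microarray. Binding was expressed as a Z-score against the library mean and standard deviation, after subtraction of a beads-only signal and trimmed averaging of barcoded replicate probes.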

Data set [2] has as its system TO-3-N3-2 (biotin conjugate). The method, boiled down: as §1
The subject of the next data set is TO-N3 (biotin conjugate). The essentials:
as §1

Data set [3] has as its system TO-N3-2 (biotin conjugate). The essentials: as §1

As to GCUAUGCAAAUGGC, the “pull-down binding Z-score” value was -0.537 in data set [1], -0.527 in data set [2], -0.847 in the data set with TO-N3 (biotin conjugate) and -0.948 in data set [3].
For the sequence GCGCAGCCAGAAACUGGCCGCGC [mismatch-AC], the “pull-down binding Z-score” value in data set [1] was -0.43; in data set [2] it was -0.295; with TO-N3 (biotin conjugate), -0.746; in data set [3] it was -1.
On the same counts, the results for “UGUUUUCUACAAAGAAAACA [SHAPE_invivo_SARS-CoV-2_Motif_122]” are -0.462, -0.34, -0.865 and -1.85.
The like results for “UGGUUUGUAACACAAAGGAAUUUUUAUGAACCA [SHAPE_invivo_SARS-CoV-2_Motif_466]” were, in that order, 0.139, 0.046, -0.0419 and -0.605.
Regarding “UCAUCAGGAGAUGCCACAACUGCUUAUGCUAAUAGUGUUUUUAACAUUUGUCAAGCUGUCACGGCCAAUGUUAAUGCACUUUUAUCUACUGAUGG [DMSMaPseq_invitro_SARS-CoV-2_Multi_45_ComplexLevel_1]”, the “pull-down binding Z-score” value in data set [1] was -0.641; in data set [2] it was -0.46; in the data set on TO-N3 (biotin conjugate), -0.561; in data set [3], -0.306.
On the same counts, the results for “UAGGUGUUUUAAUGUCUAAUUUAGGCAUGCCUUCUUACUGUACUGGUUACAGAGAAGGCUAUUUGAACUCUACUAAUGUCACUAUUGCAACCUA” are -0.221, 0.0583, -0.0965 and -0.12.
The like results for “UGGGUUACAUCCUACACAGGCACCUACACACCUCAGUGUUGACACUAAAUUCAAAACUGAAGGUUUAUGUGUUGACAUACCUGGCAUACCUAAGGACAUGACCUA” were, in that order, -0.497, -0.293, -0.257 and 0.213.
“AGUCAGACAAAUCGCUCCAGGGCAAACUGGAAAGAUUGCUGAUU”: the “pull-down binding Z-score” value in data set [1] was 0.0712; in data set [2], 0.0858; in the data set with TO-N3 (biotin conjugate), 0.0567; in data set [3] it was 0.136.
In the case of UGUGUGAUAUCAGACA, the “pull-down binding Z-score” value in data set [1] is -0.5; in data set [2], -0.703; in the data set with TO-N3 (biotin conjugate), -0.639; in data set [3] it was -0.597.
For the sequence UAGUGCUAUGCAGACAAUGCUUUUCACUA, the “pull-down binding Z-score” value in data set [1] was -0.863; in data set [2] it was -0.341; in the data set with TO-N3 (biotin conjugate), -1.14; in data set [3], -0.838.
On the same counts, the results for “GUGCUUGGGACAUUUGAUACCGCAC [IAV_invivo_PB2_1_Motif_30+IAV_invivo_PB2_1_Motif_30]” are -0.258, -0.147, -0.171 and 0.571.
For the sequence “CUUCAUUAAAAGAAUUACUGCAAAAUGGUAUGAAUGGACGUACCAUAUUGGGUAGUGCUUUAUUAGAAG”, the “pull-down binding Z-score” value in data set [1] was -0.675; in data set [2], -0.0236; in the data set with TO-N3 (biotin conjugate), -0.621; in data set [3], -0.219.
As for “GCUUCCACAAGUGCUUUUGUGGAAACUGUGAAAGGUUUGGAUUAUAAAGCAUUCAAACAAAUUGUUGAAUCCUGUGGUAAUUUUAAAGUUACAAAAGGAAAAGC”, the “pull-down binding Z-score” value in data set [1] was -0.475; in data set [2] it was -0.339; in the data set with TO-N3 (biotin conjugate), -0.508; in data set [3] it was -0.348.
On the same counts, the results for “GAUUUGUCUUCUACAAUUUGCCUAUGCCAACAGGAAUAGGUUUUUGUAUAUAAUUAAGUUAAUUUUCCUCUGGCUGUUAUGGCCAGUAACUUUAGCUUGUUU” are -0.15, -0.102, -0.372 and -0.904.
As to UGUUGUAACAACA, the “pull-down binding Z-score” value in data set [1] is -0.671; in data set [2] it was -0.596; in the data set on TO-N3 (biotin conjugate), -0.992; in data set [3], -1.35.
On the same counts, the results for “CUAUACUGUUACUAGAUCAGGCAUUAGUGUCUGAUGUUGGUGAUAGUGCGG” are -0.845, -0.622, -0.939 and -0.582.
The like results for “GCUUGUCACACCGUUUCUAUAGAUUAGCUAAUGAGUGUGCUCAAGU” were, in that order, -0.601, -0.356, -0.0415 and 0.588.
As for “AUGGUUAUCUUACUUCUUCUUCUAAAACACCUGAAGAACAUUUUAUUGAAACCAU”, the “pull-down binding Z-score” value in data set [1] is -0.93; in data set [2] it was 0.0544; in the data set with TO-N3 (biotin conjugate), -1.19; in data set [3], -1.01.
As for “GCAGUUAAAAUGUUUGAUGCUUACGUUAAUACGUUUUCAUCAACUUUUAACGU”, the “pull-down binding Z-score” value in data set [1] was -1.09; in data set [2], -0.145; in the data set on TO-N3 (biotin conjugate) it was -1.37; in data set [3], -1.09.
With CUGCUUUUGGCUUAGUUGCAG, the “pull-down binding Z-score” value in data set [1] is 0.285; in data set [2], 0.206; with TO-N3 (biotin conjugate), 0.125; in data set [3] it was -0.231.
The like results for “CUGACUUAACAAAGCCUUACAUUAAGUGGGAUUUGUUAAAAUAUGACUUCACGGAAGAGAGGUUAAAACUCUUUGACCGUUAUUUUAAAUAUUGG” were, in that order, -0.707, -0.143, -0.517 and -0.193.
On the same counts, the results for UAGUUUUAAGGAAUUA are -0.826, -0.519, -1.1 and -1.56.
The like results for “AGUGAUGGAACU [DMSMaPseq_invitro_SARS-CoV-2_Motif_229]” were, in that order, -0.565, -0.117, -0.658 and -0.572.
Take “GGCCUCACGGCC [IAV_invivo_PB1_2_Motif_9+IAV_invivo_PB1_2_Motif_9]”: the “pull-down binding Z-score” value in data set [1] was 0.0835; in data set [2], -0.354; with TO-N3 (biotin conjugate), -0.332; in data set [3], -0.914.
On the same counts, the results for “GACCCUGUGGGUU [SHAPE_invitro_SARS-CoV-2_Motif_242]” are 0.817, -0.329, 0.574 and -0.805.
On the same counts, the results for “ACCACCAAUUAAAGAUUUUGGUGGU [SHAPE_invitro_SARS-CoV-2_Motif_434]” are 0.206, -0.49, -0.123 and -1.4.
The like results for “GUGCCUGGAAUAUUGGUGAACAGAAAUCAAUACUGAGUCCUCUUUAUGCAUUUGCAUCAGAGGCUGCUCGUGUUGUACGAUCAAUUUUCUCCCGCAC [SHAPE_invivo_SARS-CoV-2_Motif_37]” were, in that order, -0.254, -0.0608, -0.115 and 0.225.
“UGAAGUAUUUUGUGAAAAUAGGACCUGAGCGCACCUGUUGUCUAUGUGAUAGACGUGCCACAUGCUUUUCCACUGCUUCA [SHAPE_invitro_SARS-CoV-2_Motif_342]”: the “pull-down binding Z-score” value in data set [1] was -0.573; in data set [2], -0.335; with TO-N3 (biotin conjugate), -0.477; in data set [3], 0.0857.
“GGCAGACGUGGUCCAGAACAAACCCAAGGAAAUUUUGGGGACCAGGAACUAAUCAGACAAGGAACUGAUUACAAACAUUGGCC”: the “pull-down binding Z-score” value in data set [1] was determined as 0.608; in data set [2], 0.536; in the data set with TO-N3 (biotin conjugate) it was 0.753; in data set [3] it was 0.614.
On the same counts, the results for “CACAAGGCAGAUGGGCUAUAUAAACGUUUUCGCUUUUCCGUUUACGAUAUAUAGUCUACUCUUGUG” are -0.81, -0.5, -0.787 and -0.455.
For the sequence GUUUAAGGAAGGUGUAGAGUUUCUUAGAGAC, the “pull-down binding Z-score” value was -0.375 in data set [1], 0.179 in data set [2], 0.119 in the data set on TO-N3 (biotin conjugate) and 0.726 in data set [3].
On the same counts, the results for “CUGUAGCUGCAUUUCACCAAGAAUGUAGUUUACAG [DMSMaPseq_invitro_SARS-CoV-2_Motif_500]” are 0.437, -0.0203, 0.121 and -0.632.
On the same counts, the results for “AACUACUAUUCAAACAAUUGUUGAGGUUCAACCUCAAUUAGAGAUGGAACUUACACCAGUUGUUCAGACUAUUGAAGUGAAUAGUUUUAGUGGUU” are -0.295, -0.609, -0.383 and -0.981.
